Experimental data reported in patent publication US20040018515.

Substance	initial rate of fluorescence increase (535 nm) of the ADP NASM FRET assay, reporting ADP yield from ATP hydrolysis (Erk2)	initial rate of fluorescence increase (535 nm) of the ADP NASM FRET assay, reporting ADP yield from ATP hydrolysis (p386)
Mek1	substantially enhanced fluorescence was observed (Table 17, shaded cells; 150-300 RFU/min)	–
Mek 6	–	substantially enhanced fluorescence was observed (Table 17, shaded cells; 150-300 RFU/min)
